In patent publication US20070036810A1, “Cyclic amp response element activator proteins and uses related thereto” (priority 2003, published 2007):
Read-outs that look alike come from different tables or passages of the source.

How the values were obtained:
[1] = target: T1, ATF2-GAL4 fusion molecule (Homo sapiens, UniProt P15336); test: In vivo kinase assay, ATF2-GAL4 fusion in HLR cells; format: cell-based; settings: 40 hours after transfection
T1 construct: host or cells: HLR cell line (5x GAL4 element-luciferase reporter)
T1 sequence (P15336 with tags, fused parts or gaps limits assumed): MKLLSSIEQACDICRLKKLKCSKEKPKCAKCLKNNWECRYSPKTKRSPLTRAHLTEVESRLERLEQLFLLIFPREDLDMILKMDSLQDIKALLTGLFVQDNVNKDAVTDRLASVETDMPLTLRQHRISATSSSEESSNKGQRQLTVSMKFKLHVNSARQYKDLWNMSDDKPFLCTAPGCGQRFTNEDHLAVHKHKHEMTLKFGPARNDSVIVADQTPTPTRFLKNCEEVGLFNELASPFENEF
Procedure: For in vivo kinase assay, activation domains of CREB or ATF2 transcription factors fused with the yeast GAL4 DNA binding domain (1-147 Amino Acids) constructs are used (Stratagene, PathDetect In Vivo Signal Transduction Pathway trans-reporting Systems). The HLR cell line that contains a 5× GAL4 DNA binding element and TATA box driving luciferase reporter is used per manufacturer's protocol (Stratagene). 10^4 HLR cells are split into each well of 96 well tissue culture plates. After 16 hours, cells are transfected with 100 ng of Creb-GAL4 or ATF2-GAL4 fusion constructs, 30 ng of Renilla luciferase control plasmid together with 100 ng of pCMVSPORT6, pCMVSPORT-CREAP1, pFC-PKA or pFC-MEKK (Stratagene) activator plasmids respectively. Transfection is done with Fugene6 reagent (Roche Molecular Biochemicals, Basel, Switzerland) according to the manufacturers manual. Forty hours after transfection, a Dual-Glo Luciferase assay (Promega) is conducted using the manufacturer's protocol.
As CREAP1 strongly activates CRE promoter transcription, we next investigated whether CREAP1 works through the CREB pathway. […]

[2] = test system: cAMP responsive genes in HeLa cells; settings: vs pCMV-Sport6 vector
Description: HeLa cells are transfected with CREAP1 as described herein or expression constructs containing relA, (Ruben S M et al., Science 1991 Mar. 22;251(5000):1490-3), MAP3K11 (Hartkamp, J. et al., (1999). Cancer Res. 59, 2195-2202) or ANKRD3 (Muto, A., et al., (2002) J. Biol. Chem. 277, 31871-31876.) using Targefect F1 transfection reagent (Targeting Systems, Santee, Calif.) according to the protocol supplied with the product. Briefly, HeLa cells are used for the transfection at 70-80% of confluency in T75 tissue culture flasks (Falcon). Transfection mixes are prepared as follows: to 50 ml conical tube (Falcon) with 8 ml of Opti-MEM I 20 μg of selected plasmid DNA is added and mixed by flicking the tube. Two transfections are set up with pCMV-Sport6 empty vector. Targefect F-1 stock solution is vortexed at full speed for 20 seconds and 40 μl are added to each tube, mixed again by flicking the tube and incubated at room temperature for 30 minutes to allow formation of transfection complexes. HeLa cells are washed twice with 20 ml of Opti-MEM I medium and […] of each transfection complex are added per 1 T75 flask. After 4 hrs of incubation at 37° C. 8 ml of growth media with serum is added to each flask. The media is replaced the next day. 56 hours post-transfection the media is replaced again and to one of the flasks transfected with pCMV-Sport6 plasmid TNFα (R&D Systems) is added at 50 ng/ml and the incubation is continued at 37° C. for the next 16 hours. 72 hours post-transfection cells are collected in 10 ml of TRIzol reagent (Gibco BRL) and frozen at −80° C. Total RNA is isolated according to the protocol supplied with the TRIzol reagent. Synthesis labeling of double-stranded cDNA probes, Affymetrix Gene-Chip hybridization and data analysis are done according to conventional methods (see also Eberwine, J., et al., J. Neurosci. 21, 8310-8314 and Hakak, Y., et al., (2001) Proc. Natl. Acad. Sci. U.S.A. 98, 4746-4751).
To determine if CREAP1 regulates expression of authentic CREB targets, cellular gene expression was measured using DNA microarrays after overexpression of CREAP1. Briefly, HeLa cells were transiently transfected with pCMV-Sport6, CREAP1 using Targefect F1 reagent (Targeting Systems). One half of pCMV-Sport6 transfected cells were left untreated and was used as a negative control. Total RNA isolation, labeled probe preparation and DNA microchip hybridization protocol were performed as described above.

[3] = test system: GAL4 DNA binding sites (UAS-Luc, pFR-Luc reporter); test: GAL4 DNA binding domain fusion transactivation assay (pFR-Luc) in HEK 293 cells; format: cell-based; settings: normalized to pCMV-BD vector
Description: To determine if CREAP proteins can act as a transcription activators, various regions of all 3 CREAP homologs (amino acids 300-650 of CREAP1, amino acids 296-694 of CREAP2 and amino acids 335-635 of CREAP3) were expressed as fusion proteins with the DNA binding domain of GAL4 and tested for the ability to activate expression of a reporter gene linked to GAL4 protein binding sequences (UAS-Luc (pFR-Luc reporter). Briefly, the indicated regions of CREAP1, CREAP2 and CREAP3 were amplified by PCR and subcloned in frame into pCMV-BD vector (Stratagene) encoding GAL4 DNA binding domain. Selected plasmids and empty vector (pCMV-SPORT6) were transfected into HEK 293 cells at 75 ng/well using Fugene6 transfection reagent (Roche) as described above. pFR-Luc reporter (Stratagene) encoding firefly luciferase gene driven by minimal promoter linked to 5 concatamerized GAL4 binding sites (UAS) was co-transfected at 100 ng/well. As a positive control, the reporter was also co-transfected with a plasmid encoding GAL4-CREB fusion protein (Stratagene) alone or in the presence of pFC-PKA an expression construct encoding catalytic subunit of protein kinase A (Stratagene) to activate the CREB kinase inducible activation domain. Fold induction was compared to the reporter's activity measured in the cells transfected with pCMV-BD an expression vector carrying GAL4 DNA binding domain only.
Expression constructs encoding full length CREAP1, CREAP2 and CREAP3 as well as a Gal4 DNA binding domain alone or fused with C-terminal portions of CREAP1, CREAP2 and CREAP3 were tested for the ability to induce expression of a luciferase gene controled by a minimal promoter linked to GAL4 DNA binding sites (pFRLuciferase). The data shown are normalized to the value seen with pCMV-BD vector co-transfected with pFR-Luc reporter.

B1: CREAP1: human CRE activating protein 1, 650 amino acids, SEQ ID NO 2; expressed from pCMVSPORT-CREAP1 (protein)
chain: MATSNNPRKFSEKIALHNQKQAEETAAFEEVMKDLSLTRAARLQLQKSQYLQLGPSRGQYYGGSLPNVNQIGSGTMDLPFQPSGFLGEALAAAPVSLTPFQSSGLDTSRTTRHHGLVDRVYRERGRLGSPHRRPLSVDKHGRQADSCPYGTMYLSPPADTSWRRTNSDSALHQSTMTPTQPESFSSGSQDVHQKRVLLLTVPGMEETTSEADKNLSKQAWDTKKTGSRPKSCEVPGINIFPSADQENTTALIPATHNTGGSLPDLTNIHFPSPLPTPLDPEEPTFPALSSSSSTGNLAANLTHLGIGGAGQGMSTPGSSPQHRPAGVSPLSLSTEARRQQASPTLSPLSPITQAVAMDALSLEQQLPYAFFTQAGSQQPPPQPQPPPPPPPASQQPPPPPPPQAPVRLPPGGPLLPSASLTRGPQPPPLAVTVPSSLPQSPPENPGQPSMGIDIASAPALQQYRTSAGSPANQSPTSPVSNQGFSPGSSPQHTSTLGSVFGDAYYEQQMAARQANALSHQLEQFNMMENAISSSSLYSPGSTLNYSQAAMMGLTGSHGSLPDSQQLGYASHSGIPNIILTVTGESPPSLSKELTSSLAGVGDVSFDSDSQFPLDELKIDPLTLDGLHMLNDPDMVLADPATEDTFRMDRL
modifications: human
B1 was tested, and the “activation of the ATF2-GAL4 fusion molecule” value [1] was “unable to activate”, the “Fold Activation” value ([2]; CAPL protein mRNA (38088_r_at)) was 19 and the “Fold Activation” value ([2]; DKFZp566K192 mRNA (32242_at)) was 32. For the same molecule, the “Fold Activation” value ([2]; Exodus-1 mRNA (40385_at)) was 15, the “Fold Activation” value ([2]; IL-8 mRNA (1369_s_at)) was 2.5 and the “Fold Activation” value ([2]; KIAA0467 mRNA (41458_at)) was 12. For the same molecule, the “Fold Activation” value ([2]; PEPCK mRNA (33702_f_at)) was 32, the “Fold Activation” value ([2]; TSHa mRNA (39352_at)) was 57 and the “Fold Activation” value ([2]; amphiregulin mRNA (34898_at)) was 19. For the same molecule, the “Fold Induction” value [3] was 2.468.
